# Measured values taken from US20090104657A1 (BASF AKTIENGESELLSCHAFT, published 2009).
# Molecular target: the molecule itself
# Test: native polyacrylamide gel electrophoresis; self-association of the subunit
protein,measurement,value
"protease according to the invention from Burkholderia glumae PG1, expressed from pETpro in E. coli BL21DE3 as a fusion protein with C-terminal 6xHis-tag (enzyme, also called putative protease; ThiJ/PfpI protein; not shown: C-terminal 6xHis-tag from vector pET22b) MQQRGGSMSKKIAVLAVDEFEDSELVEPLRALRKAGAEVDVISQQAGEVKGFRHADKGEAVKVDRTFDEVREGEFDALLLPGGLLRGDNRMLPAAREFVTAGKPVFAICHGGWLLGSSGVINGRKLTAWPSLQDDVKNAGGEFYDQEVVRDKDQLITSRKPDDLPAFNREALRLLGAGA",binding result,binds
